Experimental data reported in the Human Domainome abundance scans (Beltran et al. 2025).
± gives the uncertainty stated by the source.

Assay: abundance fitness (aPCA) (normalised: wild type 0, dead -1); higher = more abundant; growth selection in yeast, the domain comes from the species named
Conditions: Homo sapiens

Substance | abundance fitness
NEDD4-like E3 ubiquitin-protein ligase WWP2 G458L, O00308 | -0.283 ± 0.041
NEDD4-like E3 ubiquitin-protein ligase WWP2 G458M, O00308 | -0.148 ± 0.041
NEDD4-like E3 ubiquitin-protein ligase WWP2 G458N, O00308 | -0.308 ± 0.093
NEDD4-like E3 ubiquitin-protein ligase WWP2 G458P, O00308 | -1.03 ± 0.064
NEDD4-like E3 ubiquitin-protein ligase WWP2 G458Q, O00308 | -0.244 ± 0.064
NEDD4-like E3 ubiquitin-protein ligase WWP2 G458R, O00308 | -0.139 ± 0.046
NEDD4-like E3 ubiquitin-protein ligase WWP2 G458S, O00308 | -0.176 ± 0.055
NEDD4-like E3 ubiquitin-protein ligase WWP2 G458T, O00308 | -0.505 ± 0.058
NEDD4-like E3 ubiquitin-protein ligase WWP2 G458V, O00308 | -0.992 ± 0.065
NEDD4-like E3 ubiquitin-protein ligase WWP2 G458W, O00308 | -0.461 ± 0.045
NEDD4-like E3 ubiquitin-protein ligase WWP2 G458Y, O00308 | -0.262 ± 0.064
NEDD4-like E3 ubiquitin-protein ligase WWP2 G478A, O00308 | 0.035 ± 0.058
NEDD4-like E3 ubiquitin-protein ligase WWP2 G478C, O00308 | -0.001 ± 0.039
NEDD4-like E3 ubiquitin-protein ligase WWP2 G478D, O00308 | -0.036 ± 0.05
NEDD4-like E3 ubiquitin-protein ligase WWP2 G478E, O00308 | -0.036 ± 0.063
NEDD4-like E3 ubiquitin-protein ligase WWP2 G478F, O00308 | -0.014 ± 0.046
NEDD4-like E3 ubiquitin-protein ligase WWP2 G478H, O00308 | -0.045 ± 0.069
NEDD4-like E3 ubiquitin-protein ligase WWP2 G478I, O00308 | 0.136 ± 0.073
NEDD4-like E3 ubiquitin-protein ligase WWP2 G478K, O00308 | 0.061 ± 0.067
NEDD4-like E3 ubiquitin-protein ligase WWP2 G478L, O00308 | 0.012 ± 0.035
NEDD4-like E3 ubiquitin-protein ligase WWP2 G478M, O00308 | -0.08 ± 0.057
NEDD4-like E3 ubiquitin-protein ligase WWP2 G478N, O00308 | -0.136 ± 0.068

Substance | abundance fitness
NEDD4-like E3 ubiquitin-protein ligase WWP2 G478P, O00308 | -0.005 ± 0.052
NEDD4-like E3 ubiquitin-protein ligase WWP2 G478Q, O00308 | 0.038 ± 0.048
NEDD4-like E3 ubiquitin-protein ligase WWP2 G478R, O00308 | 0.032 ± 0.047
NEDD4-like E3 ubiquitin-protein ligase WWP2 G478S, O00308 | 0.019 ± 0.033
NEDD4-like E3 ubiquitin-protein ligase WWP2 G478T, O00308 | 0.077 ± 0.059
NEDD4-like E3 ubiquitin-protein ligase WWP2 G478V, O00308 | -0.058 ± 0.047
NEDD4-like E3 ubiquitin-protein ligase WWP2 G478W, O00308 | -0.017 ± 0.032
NEDD4-like E3 ubiquitin-protein ligase WWP2 G478Y, O00308 | -0.084 ± 0.068
NEDD4-like E3 ubiquitin-protein ligase WWP2 G482A, O00308 | -0.033 ± 0.042
NEDD4-like E3 ubiquitin-protein ligase WWP2 G482C, O00308 | -0.15 ± 0.062
NEDD4-like E3 ubiquitin-protein ligase WWP2 G482E, O00308 | -0.064 ± 0.049
NEDD4-like E3 ubiquitin-protein ligase WWP2 G482F, O00308 | -0.124 ± 0.06
NEDD4-like E3 ubiquitin-protein ligase WWP2 G482H, O00308 | -0.019 ± 0.076
NEDD4-like E3 ubiquitin-protein ligase WWP2 G482I, O00308 | -0.077 ± 0.046
NEDD4-like E3 ubiquitin-protein ligase WWP2 G482K, O00308 | -0.037 ± 0.068
NEDD4-like E3 ubiquitin-protein ligase WWP2 G482L, O00308 | -0.086 ± 0.044
NEDD4-like E3 ubiquitin-protein ligase WWP2 G482M, O00308 | -0.121 ± 0.061
NEDD4-like E3 ubiquitin-protein ligase WWP2 G482N, O00308 | -0.007 ± 0.039
NEDD4-like E3 ubiquitin-protein ligase WWP2 G482P, O00308 | -0.032 ± 0.07
NEDD4-like E3 ubiquitin-protein ligase WWP2 G482Q, O00308 | -0.009 ± 0.057
NEDD4-like E3 ubiquitin-protein ligase WWP2 G482R, O00308 | -0.097 ± 0.043
NEDD4-like E3 ubiquitin-protein ligase WWP2 G482S, O00308 | -0.025 ± 0.033

Substance | abundance fitness
NEDD4-like E3 ubiquitin-protein ligase WWP2 G482T, O00308 | -0.019 ± 0.06
NEDD4-like E3 ubiquitin-protein ligase WWP2 G482V, O00308 | -0.108 ± 0.043
NEDD4-like E3 ubiquitin-protein ligase WWP2 G482W, O00308 | -0.151 ± 0.05
NEDD4-like E3 ubiquitin-protein ligase WWP2 G482Y, O00308 | -0.089 ± 0.045
NEDD4-like E3 ubiquitin-protein ligase WWP2 G486A, O00308 | 0.028 ± 0.038
NEDD4-like E3 ubiquitin-protein ligase WWP2 G486C, O00308 | -0.023 ± 0.056
NEDD4-like E3 ubiquitin-protein ligase WWP2 G486E, O00308 | 0.044 ± 0.042
NEDD4-like E3 ubiquitin-protein ligase WWP2 G486F, O00308 | -0.205 ± 0.073
NEDD4-like E3 ubiquitin-protein ligase WWP2 G486H, O00308 | -0.135 ± 0.062
NEDD4-like E3 ubiquitin-protein ligase WWP2 G486I, O00308 | -0.028 ± 0.072
NEDD4-like E3 ubiquitin-protein ligase WWP2 G486L, O00308 | -0.066 ± 0.042
NEDD4-like E3 ubiquitin-protein ligase WWP2 G486M, O00308 | -0.01 ± 0.036
NEDD4-like E3 ubiquitin-protein ligase WWP2 G486N, O00308 | -0.177 ± 0.12
NEDD4-like E3 ubiquitin-protein ligase WWP2 G486P, O00308 | 0.013 ± 0.049
NEDD4-like E3 ubiquitin-protein ligase WWP2 G486Q, O00308 | -0.023 ± 0.054
NEDD4-like E3 ubiquitin-protein ligase WWP2 G486R, O00308 | -0.028 ± 0.037
NEDD4-like E3 ubiquitin-protein ligase WWP2 G486S, O00308 | -0.041 ± 0.049
NEDD4-like E3 ubiquitin-protein ligase WWP2 G486V, O00308 | -0.01 ± 0.043
NEDD4-like E3 ubiquitin-protein ligase WWP2 G486W, O00308 | -0.187 ± 0.049
NEDD4-like E3 ubiquitin-protein ligase WWP2 G486Y, O00308 | -0.239 ± 0.069
